This assay addresses integrin α2β1 on human platelets (human (endogenous in platelets)) (UniProt P17301). The assay is described as follows: flow cytometry on cells.
Sequence of UniProt P17301 (P17301 30-1181, chain 1 of 2): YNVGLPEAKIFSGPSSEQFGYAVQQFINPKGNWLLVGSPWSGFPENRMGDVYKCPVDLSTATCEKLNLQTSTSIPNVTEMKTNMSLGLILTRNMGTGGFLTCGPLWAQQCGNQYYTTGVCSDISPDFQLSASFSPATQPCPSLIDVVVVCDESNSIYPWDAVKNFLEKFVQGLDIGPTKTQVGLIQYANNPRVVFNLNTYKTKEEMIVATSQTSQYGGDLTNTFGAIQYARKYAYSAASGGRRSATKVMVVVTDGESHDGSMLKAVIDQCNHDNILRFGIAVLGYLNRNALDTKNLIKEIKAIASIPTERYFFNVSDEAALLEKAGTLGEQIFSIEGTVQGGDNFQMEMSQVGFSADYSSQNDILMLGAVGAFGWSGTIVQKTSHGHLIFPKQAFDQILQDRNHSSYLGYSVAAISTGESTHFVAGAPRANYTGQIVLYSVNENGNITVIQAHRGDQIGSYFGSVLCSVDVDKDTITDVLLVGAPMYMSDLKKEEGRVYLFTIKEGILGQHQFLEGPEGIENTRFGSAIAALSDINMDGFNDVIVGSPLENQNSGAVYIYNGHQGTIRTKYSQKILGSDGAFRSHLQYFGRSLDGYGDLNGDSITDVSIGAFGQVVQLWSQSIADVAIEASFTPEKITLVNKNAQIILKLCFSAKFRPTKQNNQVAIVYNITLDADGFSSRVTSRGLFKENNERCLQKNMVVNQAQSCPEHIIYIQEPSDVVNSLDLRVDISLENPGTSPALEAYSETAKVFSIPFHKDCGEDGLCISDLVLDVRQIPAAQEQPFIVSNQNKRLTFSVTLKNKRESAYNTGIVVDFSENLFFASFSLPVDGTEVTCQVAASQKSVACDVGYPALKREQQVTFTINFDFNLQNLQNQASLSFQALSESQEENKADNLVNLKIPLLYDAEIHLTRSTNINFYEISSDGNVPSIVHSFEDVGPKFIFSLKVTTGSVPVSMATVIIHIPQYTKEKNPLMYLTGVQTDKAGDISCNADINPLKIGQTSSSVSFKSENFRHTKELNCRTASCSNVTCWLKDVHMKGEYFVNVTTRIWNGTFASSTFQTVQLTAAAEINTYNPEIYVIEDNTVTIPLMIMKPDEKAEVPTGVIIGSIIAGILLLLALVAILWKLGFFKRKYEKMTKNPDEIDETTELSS
Sequence of UniProt P17301 (P05556 21-798, chain 2 of 2, further chain): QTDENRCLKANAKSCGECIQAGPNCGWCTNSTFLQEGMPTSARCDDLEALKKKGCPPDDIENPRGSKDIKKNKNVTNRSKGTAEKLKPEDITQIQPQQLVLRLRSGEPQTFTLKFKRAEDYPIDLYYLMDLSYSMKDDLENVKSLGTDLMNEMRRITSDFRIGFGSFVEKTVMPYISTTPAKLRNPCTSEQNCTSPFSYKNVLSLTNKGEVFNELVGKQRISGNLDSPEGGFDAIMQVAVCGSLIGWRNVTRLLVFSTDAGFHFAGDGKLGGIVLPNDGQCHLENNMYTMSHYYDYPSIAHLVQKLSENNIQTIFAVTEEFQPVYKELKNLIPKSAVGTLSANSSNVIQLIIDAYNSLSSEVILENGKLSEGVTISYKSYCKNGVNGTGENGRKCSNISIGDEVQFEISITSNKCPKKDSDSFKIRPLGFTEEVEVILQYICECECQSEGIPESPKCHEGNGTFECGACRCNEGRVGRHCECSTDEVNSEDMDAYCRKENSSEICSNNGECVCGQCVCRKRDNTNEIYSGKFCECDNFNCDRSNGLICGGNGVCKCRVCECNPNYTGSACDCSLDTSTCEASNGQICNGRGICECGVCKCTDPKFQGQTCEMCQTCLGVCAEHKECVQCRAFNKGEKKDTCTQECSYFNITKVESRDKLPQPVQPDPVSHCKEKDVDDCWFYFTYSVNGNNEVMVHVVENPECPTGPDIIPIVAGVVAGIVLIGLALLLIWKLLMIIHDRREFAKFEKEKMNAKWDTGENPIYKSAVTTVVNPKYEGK

Take “Rhinocetin (heterodimeric snaclec from the venom of Bitis gabonica rhinoceros) (complex)”: the percent inhibition of 6F1 antibody binding at 50 μg/ml is 65% and the percent inhibition of 6F1 antibody binding at 100 μg/ml stood at 90%.

Values taken from article PMC3406708.
